Experimental data taken from patent publication US20180037631A1 (Bristol-Myers Squibb, published 2018).
Values joined by “and” are separate entries in the source; they are usually repeats but may differ in a detail not shown here. Identical values can stand only once. Like-named read-outs stand apart in the source and are kept apart here.

What was measured:
[1] = molecular target: T1, IGF1R-Fc (extracellular domain of human IGF1R aa 1-932 fused to hinge and constant regions of human IgG1) (human, UniProt P08069 31-932); assay: SPR Biacore
T1 construct: range 1-932; made in house by transient transfection, purified on Protein A; also called IGF-IR-Fc; not shown: hinge and constant regions of human IgG1

[2] = molecular target: T2, EGFR on the surface of human tumour cells (A431, H292) (human, UniProt P00533 25-1210); assay: cell-based or functional assay
[3] = molecular target: T3, IGF-IR on human tumour cells (H292, MCF-7, RH41) (human, UniProt P08069 31-1367); assay: cell-based or functional assay
[4] = molecular target: T3, IGF-IR on human tumour cells (H292, …); assay: cell-based or functional assay; remark: listed apart in the source
[5] = molecular target: T3, IGF-IR on human tumour cells (H292, …); assay: cell-based or functional assay; remark: listed apart in the source
[6] = molecular target: T3, IGF-IR on human tumour cells (H292, …); assay: cell-based or functional assay; remark: listed apart in the source
[7] = molecular target: T1, IGF1R-Fc (extracellular domain of human …)
[8] = molecular target: T3, IGF-IR on human tumour cells (H292, …); assay: IGF-I competition for IGF-IR binding
[9] = molecular target: T3, IGF-IR on human tumour cells (H292, …); assay: [125I]-IGF-I competition on MCF-7 cells
[10] = molecular target: T1, IGF1R-Fc (extracellular domain of human …); assay: SPR Biacore, IGF-IR-Fc captured on Protein A
[11] = molecular target: T4, Recombinant human EGFR-Fc (aa 1-645 of the extracellular domain of human EGFR fused to human Fc) (human, UniProt P00533 25-645); assay: BIAcore
T4 construct: range 1-645; bought from R&D Systems; also called EGFR645-Fc; EGFR-Fc (HER-1); not shown: human Fc

[12] = molecular target: T4, Recombinant human EGFR-Fc (aa 1-645 of …); assay: SPR Biacore
[13] = molecular target: T2, EGFR on the surface of human tumour …; assay: cell-based or functional assay; remark: listed apart in the source
[14] = molecular target: T2, EGFR on the surface of human tumour …; assay: cell-based or functional assay; remark: listed apart in the source
[15] = molecular target: T2, EGFR on the surface of human tumour …
[16] = molecular target: T2, EGFR on the surface of human tumour …; assay: cell-based or functional assay; remark: listed apart in the source
[17] = molecular target: T4, Recombinant human EGFR-Fc (aa 1-645 of …)
[18] = molecular target: T2, EGFR on the surface of human tumour …; assay: cell-based or functional assay; remark: listed apart in the source
[19] = molecular target: T2, EGFR on the surface of human tumour …; remark: listed apart in the source
[20] = molecular target: T2, EGFR on the surface of human tumour …; remark: listed apart in the source
[21] = molecular target: T4, Recombinant human EGFR-Fc (aa 1-645 of …); remark: listed apart in the source
[22] = molecular target: T4, Recombinant human EGFR-Fc (aa 1-645 of …); remark: listed apart in the source
[23] = molecular target: T4, Recombinant human EGFR-Fc (aa 1-645 of …); remark: listed apart in the source

B1: I1 IGF-IR 10Fn3-based binder, His-tagged monomer (designed binder)
chain: MGVSDVPRDLEVVAATPTSLLISWSARLKVARYYRITYGETGGNSPVQEFTVPKNVYTATISGLKPGVDYTITVYAVTRFRDYQPISINYRTEIDKPSQHHHHHH
[1]
  Kd: 0.11 nM
[2]
  inhibition of EGF-stimulated EGFR phosphorylation (Y1068), H292 cells, ELISA, IC50: > 6210 nM
[3]
  inhibition of IGF1-stimulated IGF1R phosphorylation (Y1131), H292 cells, ELISA, IC50: 18 nM
[4]
  Inhibition of RH41 Proliferation IC50: 28 nM
  Inhibition of pIGFR IC50: 0.2 nM
[5]
  H292 pIGF-IR IC50 (ELISA): 0.2 nM
[6]
  IC50, IGF1-stimulated IGFR phosphorylation, H292 cells, ELISA: 0.4 nM
[7]
  Kd: 0.11 nM
  koff: 0.000434 s⁻¹
  kon: 3.84e+06 M⁻¹ s⁻¹
[8]
  IC50: 8 nM
[9]
  IC50: 8 nM
[10]
  Kd: 0.11 nM

B2: E1 EGFR 10Fn3-based binder, His-tagged monomer (designed binder)
chain: MGVSDVPRDLEVVAATPTSLLISWVAGAEDYQYYRITYGETGGNSPVQEFTVPHDLVTATISGLKPGVDYTITVYAVTDMMHVEYTEHPISINYRTEIDKPSQHHHHHH
[11]
  Kd: 14.6 nM
[12]
  Kd: 9.92 nM
[2]
  inhibition of EGF-stimulated EGFR phosphorylation (Y1068), H292 cells, ELISA, IC50: 7 nM
[3]
  inhibition of IGF1-stimulated IGF1R phosphorylation (Y1131), H292 cells, ELISA, IC50: > 3500 nM
[13]
  Inhibition of H292 Proliferation IC50: 18 nM
  Inhibition of PERK IC50: 17 nM
  Inhibition of pEGFR IC50: 18 nM
[14]
  A431 pEGFR IC50 (In-Cell Western): 24 nM
  A431 pERK IC50 (In-Cell Western): 13 nM
  H292 pEGFR IC50 (ELISA): 9 nM
[5]
  H292 pIGF-IR IC50 (ELISA): > 3400 nM
[15]
  IC50: 15.9 nM
[16]
  IC50, EGF-stimulated EGFR phosphorylation, H292 cells, ELISA: 8 nM
[17]
  Kd: 9.92 nM and 13.2 nM
  koff: 0.00118 s⁻¹ and 0.00189 s⁻¹
  kon: 119000 M⁻¹ s⁻¹ and 143000 M⁻¹ s⁻¹
[18]
  % inhibition of EGFR phosphorylation at 100 nM binder, cell-based assay: 85.9%
[19]
  IC50: 14 nM
[20]
  IC50: 0.53 nM

B3: E3 EGFR 10Fn3-based binder, His-tagged monomer (designed binder)
chain: MGVSDVPRDLEVVAATPTSLLISWLPGKLRYQYYRITYGETGGNSPVQEFTVPHDLRTATISGLKPGVDYTITVYAVTNMMHVEYSEYPISINYRTEIDKPSQHHHHHH
[11]
  Kd: 0.72 nM
[12]
  Kd: 3.4 nM
[13]
  Inhibition of H292 Proliferation IC50: 26 nM
  Inhibition of PERK IC50: 97 nM
  Inhibition of pEGFR IC50: 11 nM
[14]
  A431 pEGFR IC50 (In-Cell Western): 15 nM
  A431 pERK IC50 (In-Cell Western): 11 nM
  H292 pEGFR IC50 (ELISA): 22 nM
[5]
  H292 pIGF-IR IC50 (ELISA): > 7000 nM
[15]
  IC50: 4.75 nM
[16]
  IC50, EGF-stimulated EGFR phosphorylation, A431 cells, In Cell Western: 14 nM
  IC50, EGF-stimulated EGFR phosphorylation, H292 cells, ELISA: 21 nM
[18]
  % inhibition of EGFR phosphorylation at 100 nM binder, cell-based assay: 87.5%
[20]
  IC50: 0.87 nM
[21]
  koff: 0.000398 s⁻¹
  kon: 283000 M⁻¹ s⁻¹
[22]
  Kd: 3.4 nM
[23]
  Kd: 1.4 nM
